Molecular target: T1, recombinant human granulocyte colony stimulating factor receptor (GCSF-R) (R & D Systems, cat# 381GR/CF), … (human, UniProt Q99062 25-621, limits assumed, biotinylated using NHS-LC-LC-biotin (sites not given))
T1 construct: Bought reagent; also called b-GCSF-R; G-CSF receptor
T1 sequence (looked up): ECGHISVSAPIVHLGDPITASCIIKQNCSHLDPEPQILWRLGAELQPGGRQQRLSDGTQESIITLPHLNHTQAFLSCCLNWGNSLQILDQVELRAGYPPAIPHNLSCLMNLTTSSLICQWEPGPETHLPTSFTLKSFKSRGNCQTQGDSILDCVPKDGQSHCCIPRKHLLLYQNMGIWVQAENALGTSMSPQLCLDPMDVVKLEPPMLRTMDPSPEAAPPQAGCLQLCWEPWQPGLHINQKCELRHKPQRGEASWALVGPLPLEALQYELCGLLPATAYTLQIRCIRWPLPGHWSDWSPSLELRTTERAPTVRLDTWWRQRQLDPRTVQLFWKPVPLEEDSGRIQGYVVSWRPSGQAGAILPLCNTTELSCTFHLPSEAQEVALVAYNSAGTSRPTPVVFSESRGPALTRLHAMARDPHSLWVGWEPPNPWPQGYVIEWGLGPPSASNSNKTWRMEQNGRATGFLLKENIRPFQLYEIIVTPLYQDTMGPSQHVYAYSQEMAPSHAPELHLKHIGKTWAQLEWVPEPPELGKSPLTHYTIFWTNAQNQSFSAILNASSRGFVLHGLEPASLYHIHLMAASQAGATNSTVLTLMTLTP
Assay: biolayer interferometry (Octet), biotinylated GCSF-R on streptavidin sensors, soluble lysate fractions, used to quantify the protein against a standard curve
Method: Soluble fractions were prepared by sonication followed by centrifugation. Normalized culture broth samples (400 μL) were sonicated with the Cell Lysis Automated Sonication System (CLASS, Scinomix) with a 24 probe tip horn. The lysates were centrifuged at 14,000×rpm for 20 minutes (4° C.) and the supernatants collected (soluble fraction). Further dilutions of soluble samples for biolayer interferometry analysis were performed in ForteBio's Sample Diluent (PN, described below).
The lyophilized recombinant human granulocyte colony stimulating factor receptor (GCSF-R) (R & D Systems, cat# 381GR/CF) was reconstituted in PBS buffer (Sigma, P3813) to 0.5 mg/mL and biotinylated using NHS-LC-LC-biotin (Pierce, 21343) according to the method described in ForteBio Technical Note: “Biotinylation of Protein for Immobilization onto Streptavidin Sensors.” The biosensors (Streptavidin High Binding FA Biosensors, ForteBio, 18-0009) were hydrated in 1× kinetics buffer (10-fold dilution of 10× Kinetics Buffer, ForteBio, 18-5032 into PBS) for at least 10 minutes. […]
The soluble fraction of the strain array samples were diluted 20-fold into 1× kinetics buffer. […] The samples were read at 200 rpm, 30° C., for 120 sec, and quantitation was calculated from a standard curve at 12, 6, 3, 1.5, 0.75, 0.375, 0.188, and in some cases as low as 0.094 μg/ml.

B1: recombinant human G-CSF protein comprising an N-terminal methionine (Met-G-CSF), produced in Pseudomonas fluorescens (ligand)
chain: MTPLGPASSLPQSFLLKCLEQVRKIQGDGAALQEKLCATYKLCHPEELVLLGHSLGIPWAPLSSCPSQALQLAGCLSQLHSGLFLYQGLLQALEGISPELGPTLDTLQLDVADFATTIWQQMEELGMAPALQPTQGAMPAFASAFQRRAGGVLVASHLQSFLEVSYRVLRHLAQP
notes: Tested as soluble fraction of P. fluorescens lysates, diluted, not purified; also called hG-CSF
B1: binds.

From US20110245474A1 (PFENEX, published 2011)
